# Measurements taken from article PMC6546911 (Nature Communications, 2019).
# B1: Yeast PCNA (Pol30p) (natural protein, budding yeast, UniProt P15873 1-258, looked up)
# chain: MLEAKFEEASLFKRIIDGFKDCVQLVNFQCKEDGIIAQAVDDSRVLLVSLEIGVEAFQEYRCDHPVTLGMDLTSLSKILRCGNNTDTLTLIADNTPDSIILLFEDTKKDRIAEYSLKLMDIDADFLKIEELQYDSTLSLPSSEFSKIVRDLSQLSDSINIMITKETIKFVADGDIGSGSVIIKPFVDMEHPETSIKLEMDQPVDLTFGAKYLLDIIKGSSLSDRVGIRLSSEAPALFQFDLKSGFLQFFLAPKFNDEE
# notes: PCNA (Pol30p), budding yeast; source: E. coli BL21 (DE3), purified
# Biological target: T1, Fen1, budding yeast, wild-type (budding yeast, UniProt P26793 1-382)
# T1 construct: Fen1 (flap endonuclease), budding yeast; source: purified
# T1 sequence (looked up): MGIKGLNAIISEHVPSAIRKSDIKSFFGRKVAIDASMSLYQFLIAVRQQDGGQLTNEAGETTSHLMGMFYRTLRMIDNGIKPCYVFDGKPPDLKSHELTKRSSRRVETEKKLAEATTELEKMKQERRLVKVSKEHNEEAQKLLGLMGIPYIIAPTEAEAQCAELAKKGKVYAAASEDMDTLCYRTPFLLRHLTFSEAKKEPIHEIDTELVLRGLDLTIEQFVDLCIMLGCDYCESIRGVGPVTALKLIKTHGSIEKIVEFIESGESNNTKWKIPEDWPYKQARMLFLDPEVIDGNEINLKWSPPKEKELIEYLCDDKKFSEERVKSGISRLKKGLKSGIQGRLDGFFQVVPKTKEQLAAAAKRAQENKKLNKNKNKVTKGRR
# Experiment: pull-down; purified wild-type or mutant Fen1 mixed with PCNA; Fen1 affinity-purified on anti-FLAG beads; co-isolated PCNA by immunoblot
# Conditions: both partners purified
binder,measurement,value
B1,binding result,binds
